The term Kd denotes the equilibrium constant for the complex coming apart.

Values joined by “and” are separate entries in the source; they are usually repeats but may differ in a detail not shown here. Identical values can stand only once.

Consider eleven molecules from patent US20090202980A1 (CROSSBETA BIOSCIENCES B V, published 2009).

The labels stand for the following.
B4: tPA-F-EGF-GST (finger and EGF domains of human tPA with C-terminal GST tag) (other, UniProt P00750 36-122, looked up)
chain: SYQVICRDEKTQMIYQQHQSWLRPVLRSNRVEYCWCNSGRAQCHSVPVKSCSEPRCFNGGTCQQALYFSDFVCQCPEGFAGKCCEID
notes: domain: F-EGF; also called F-EGF-tPA; not shown: vector residues and thrombin cleavage site; Schistosoma japonicum glutathion-S-transferase (GST) tag
B5: recombinant tissue-type plasminogen activator (tPA) (enzyme, human, UniProt P00750 36-562, looked up)
chain: SYQVICRDEKTQMIYQQHQSWLRPVLRSNRVEYCWCNSGRAQCHSVPVKSCSEPRCFNGGTCQQALYFSDFVCQCPEGFAGKCCEIDTRATCYEDQGISYRGTWSTAESGAECTNWNSSALAQKPYSGRRPDAIRLGLGNHNYCRNPDRDSKPWCYVFKAGKYSSEFCSTPACSEGNSDCYFGNGSAYRGTHSLTESGASCLPWNSMILIGKVYTAQNPSAQALGLGKHNYCRNPDGDAKPWCHVLKNRRLTWEYCDVPSCSTCGLRQYSQPQFRIKGGLFADIASHPWQAAIFAKHRRSPGERFLCGGILISSCWILSAAHCFQERFPPHHLTVILGRTYRVVPGEEEQKFEVEKYIVHKEFDDDTYDNDIALLQLKSDSSRCAQESSVVRTVCLPPADLQLPDWTECELSGYGKHEALSPFYSERLKEAHVRLYPSSRCTSQHLLNRTVTDNMLCAGDTRSGGPQANLHDACQGDSGGPLVCLNDGRMTLVGIISWGLGCGQKDVPGVYTKVTNYLDWIRDNMRP
notes: Commercial full-length recombinant tPA; also called Alteplase; Actilyse
B7: human factor XII (Hageman factor) (enzyme, UniProt P00748 20-615, looked up)
chain: IPPWEAPKEHKYKAEEHTVVLTVTGEPCHFPFQYHRQLYHKCTHKGRPGPQPWCATTPNFDQDQRWGYCLEPKKVKDHCSKHSPCQKGGTCVNMPSGPHCLCPQHLTGNHCQKEKCFEPQLLRFFHKNEIWYRTEQAAVARCQCKGPDAHCQRLASQACRTNPCLHGGRCLEVEGHRLCHCPVGYTGAFCDVDTKASCYDGRGLSYRGLARTTLSGAPCQPWASEATYRNVTAEQARNWGLGGHAFCRNPDNDIRPWCFVLNRDRLSWEYCDLAQCQTPTQAAPPTPVSPRLHVPLMPAQPAPPKPQPTTRTPPQSQTPGALPAKREQPPSLTRNGPLSCGQRLRKSLSSMTRVVGGLVALRGAHPYIAALYWGHSFCAGSLIAPCWVLTAAHCLQDRPAPEDLTVVLGQERRNHSCEPCQTLAVRSYRLHEAFSPVSYQHDLALLRLQEDADGSCALLSPYVQPVCLPSGAARPSETTLCQVAGWGHQFEGAEEYASFLQEAQVPFLSLERCSAPDVHGSSILPGMLCAGFLEGGTDACQGDSGGPLVCEDQAAERRLTLQGIISWGSGCGDRNKPGVYTDVAYYLAWIREHTVS
notes: also called FXII; fXII

Assay [1] deals with B4. Put plainly: ELISA, 25 µg/ml peptide immobilized, excess εACA, anti-GST detection. In general terms: An ELISA detects its analyte on a solid surface through an enzyme-linked reagent.
Assay [2] deals with B5. Put plainly: ELISA, 25 µg/ml peptide immobilized on Exiqon plates.
Assay [3] deals with B7. Put plainly: ELISA, coated ligand, FXII concentration series, 10 mM εACA. The source says: (§1) Wells were coated in triplicate. […] Ten μg of the peptides that contain cross-β structure, as well as the negative control peptide MΔIAPP and phosphate-buffered saline (PBS), were spotted in duplicate onto methanol-activated nitrocellulose.
Assay [4] addresses B5. Put plainly: ELISA, tPA immobilized, β2gpi concentration series, detection with antibody 2B2.
Assay [5] deals with B7. Put plainly: ELISA, factor XII immobilized, β2gpi concentration series, detection with antibody 2B2.
Assay [6] concerns the target B5. Put plainly: ELISA, immobilized peptide, 10 mM εACA.
Assay [7] has as its target B7. Put plainly: ELISA, immobilized peptide.
Assay [8] addresses T1, human amyloid-β peptide Aβ(1-40) (human).
T1 construct: also called hAβ(1-40); amyloid-β(1-40)
Put plainly: ELISA, Aβ coated on plate, plasmin overlaid.

The target in assay [9] is T2, Fn F4-5-GST (finger domains 4-5 of human fibronectin with C-terminal GST tag) (human; Schistosoma japonicum, UniProt P02751 182-276).
T2 construct: domain: fibronectin type I domains 4-5; Printed in places as Fn F4-S-GST (a misprint of F4-5); also called Fn F4-S-GST; fibronectin F4-5; not shown: (G)RP vector residues and thrombin cleavage site; Schistosoma japonicum glutathion-S-transferase (GST) tag
Put plainly: ELISA, immobilized peptide.

The target of assay [10] is T1, human amyloid-β peptide Aβ(1-40). Put plainly: ELISA, 25 µg/ml peptide immobilized, excess εACA, anti-GST detection.
The target in assay [11] is T3, advanced glycation end product-modified bovine serum albumin, glycated with glucose-6-phosphate (albumin-g6p) (bovine, UniProt P02769 25-607, glycated with glucose-6-phosphate (advanced glycation end products; 59 lysine and 23 arginine residues and the N-terminus are potential glycation sites)).
T3 construct: adopts cross-β structure; also called albumin-AGE; glycated albumin
Put plainly: kD of tPA binding to coated albumin-AGE, quoted for the competitive ELISA.

In assay [12] the target is T1, human amyloid-β peptide Aβ(1-40). Put plainly: ELISA, Aβ coated on plate, tPA overlaid.
Assay [13] shares this target. Put plainly: kD of tPA binding to coated hAβ(1-40), quoted for the competitive ELISA.
For assay [14] the target is unchanged. Put plainly: ELISA, 25 µg/ml peptide immobilized on Exiqon plates.
The target is the same in assay [15]. Put plainly: ELISA on Exiqon plates.
Assay [16] deals with B7. Put plainly: dot blot, 10 µg peptide spotted, 2 nM FXII. From the text:
Ten μg of the peptides that contain cross-β structure, as well as the negative control peptide mΔIAPP and phosphate-buffered saline (PBS), were spotted in duplicate.

In assay [17] the target is T1, human amyloid-β peptide Aβ(1-40). Put plainly: ELISA, coated ligand, FXII concentration series, 10 mM εACA.
Description: as §1

For assay [18] the target is unchanged. Put plainly: pull-down with Aβ fibrils, Western blot. As for the experimental part:
“Control,” medium before the pull-down, “Aβ,” washed amyloid Aβ pellet, after the pull-down, “Sup,” medium after extraction with Aβ. […] MΔIAPP was coated as non-amyloid negative control (Panel E). […] The same sections were incubated with Congo red (Panels I, K, and M) to locate amyloid deposits. Panels N and O: Pull-down assay with insoluble Aβ fibrils and finger domains. […] “Control,” medium before the pull-down, “Aβ,” washed amyloid Aβ pellet, after the pull-down, “Sup,” medium after extraction with Aβ.
Conditioned medium was used for pull-down assays using Aβ and IAPP fibrils, followed by Western blot analyses.
Background: Immunoblotting shows a protein as a band on a membrane.

For assay [19] the target is unchanged. Put plainly: ELISA, coated ligand, anti-GST detection. As for the experimental part:
FIG. 13. […] “Control,” medium before the pull-down, “Aβ,” washed amyloid Aβ pellet, after the pull-down, “Sup,” medium after extraction with Aβ. […] MΔIAPP was coated as non-amyloid negative control (Panel E). […] The same sections were incubated with Congo red (Panels I, K, and M) to locate amyloid deposits. Panels N and O: Pull-down assay with insoluble Aβ fibrils and finger domains. […] “Control,” medium before the pull-down, “Aβ,” washed amyloid Aβ pellet, after the pull-down, “Sup,” medium after extraction with Aβ.

T1 sequence (peptide, as listed by the source): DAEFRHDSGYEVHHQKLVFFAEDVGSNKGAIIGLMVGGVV
T3 sequence (P02769 25-607 limits assumed): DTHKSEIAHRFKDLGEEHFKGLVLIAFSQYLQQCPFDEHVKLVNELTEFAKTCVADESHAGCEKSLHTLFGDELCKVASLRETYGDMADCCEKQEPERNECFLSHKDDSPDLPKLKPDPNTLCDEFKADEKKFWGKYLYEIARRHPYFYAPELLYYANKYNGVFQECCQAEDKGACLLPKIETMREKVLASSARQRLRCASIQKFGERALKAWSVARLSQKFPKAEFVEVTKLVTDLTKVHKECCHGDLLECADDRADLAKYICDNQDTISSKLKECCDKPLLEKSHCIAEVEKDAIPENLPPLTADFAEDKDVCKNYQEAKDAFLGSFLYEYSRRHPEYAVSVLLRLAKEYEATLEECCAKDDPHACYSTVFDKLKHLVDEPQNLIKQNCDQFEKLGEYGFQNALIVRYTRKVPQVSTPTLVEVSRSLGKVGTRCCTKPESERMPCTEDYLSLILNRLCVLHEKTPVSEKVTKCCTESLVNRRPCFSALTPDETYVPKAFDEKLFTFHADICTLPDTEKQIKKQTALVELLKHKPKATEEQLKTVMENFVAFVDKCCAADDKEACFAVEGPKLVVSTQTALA
T2 sequence (P02751 182-276, tags left off): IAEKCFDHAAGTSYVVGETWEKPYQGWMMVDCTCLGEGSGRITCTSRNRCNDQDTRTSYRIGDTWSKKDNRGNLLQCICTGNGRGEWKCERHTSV

B1: fibrin peptide 85 (FP13), human fibrin α-chain fragment α148-160 (peptide)
peptide: KRLEVDIDIKIRS
notes: also called fibrin fragment α147-159 FP13
With B1, the Kd in assay [1] was 2 nM; in [2] it was 5 nM; in assay [3], approximately 11 nM.

B2: recombinant human β2-glycoprotein I (expressed in insect cells) (other, UniProt P02749 20-345, looked up)
chain: GRTCPKPDDLPFSTVVPLKTFYEPGEEITYSCKPGYVSRGGMRKFICPLTGLWPINTLKCTPRVCPFAGILENGAVRYTTFEYPNTISFSCNTGFYLNGADSAKCTEEGKWSPELPVCAPIICPPPSIPTFATLRVYKPSAGNNSLYRDTAVFECLPQHAMFGNDTITCTTHGNWTKLPECREVKCPFPSRPDNGFVNYPAKPTLYYKDKATFGCHDGYSLDGPEEIECTKLGNWSAMPSCKASCKVPVKKATVVYQGERVKIQEKFKNGMLHGDKVSFFCKNKEKKCSYTEDAQCIDGTIEVPKCFKEHSSLAFWKTDASDVKPC
notes: also called recombinant β2gpi; rβ2gpi
As to B2, the Kd in assay [4] is 2.3 µg/mL and 51 nM; in [5], 0.9 µg/mL and 20 nM. Take AASIKVAVSADR [laminin α1-chain(2097-2108) amyloid core peptide (LAM12)]: the binding result in assay [6] and in assay [7] was “binds” each time.

B3: plasmin (activated plasminogen) (enzyme, UniProt P00747 97-810, looked up)
chain: KVYLSECKTGNGKNYRGTMSKTKNGITCQKWSSTSPHRPRFSPATHPSEGLEENYCRNPDNDPQGPWCYTTDPEKRYDYCDILECEEECMHCSGENYDGKISKTMSGLECQAWDSQSPHAHGYIPSKFPNKNLKKNYCRNPDRELRPWCFTTDPNKRWELCDIPRCTTPPPSSGPTYQCLKGTGENYRGNVAVTVSGHTCQHWSAQTPHTHNRTPENFPCKNLDENYCRNPDGKRAPWCHTTNSQVRWEYCKIPSCDSSPVSTEQLAPTAPPELTPVVQDCYHGDGQSYRGTSSTTTTGKKCQSWSSMTPHRHQKTPENYPNAGLTMNYCRNPDADKGPWCFTTDPSVRWEYCNLKKCSGTEASVVAPPPVVLLPDVETPSEEDCMFGNGKGYRGKRATTVTGTPCQDWAAQEPHRHSIFTPETNPRAGLEKNYCRNPDGDVGGPWCYTTNPRKLYDYCDVPQCAAPSFDCGKPQVEPKKCPGRVVGGCVAHPHSWPWQVSLRTRFGMHFCGGTLISPEWVLTAAHCLEKSPRPSSYKVILGAHQEVNLEPHVQEIEVSRLFLEPTRKDIALLKLSSPAVITDKVIPACLPSPNYVVADRTECFITGWGETQGTFGAGLLKEAQLPVIENKVCNRYEFLNGRVQSTELCAGHLAGGTDSCQGDSGGPLVCFEKDKYILQGVTSWGLGCARPNKPGVYVRVSRFVTWIEGVMRNN
B3 had a Kd in assay [8] of 47 nM. On to YTIAALLSPYS [amyloid fragment of transthyretin (TTR11)], for which the binding result in assay [6], in [7] and in assay [9] was “binds” in each case.

The molecule B4 yielded a Kd in assay [10] of 2 nM. On to B5, for which the Kd is 1 nM in assay [11]; approximately 7 nM in [12]; 50 nM in assay [13]; 2 nM in [14]; 46 nM in [15].

B6: human IAPP amyloid core fragment (ΔhIAPP) (peptide)
peptide: SNNFGAILSS
notes: also called hΔIAPP; human amylin fragment
For the molecule B6, the binding result in assay [16] is “binds”.

Turning to B7, in assay [17], the Kd is approximately 2 nM.

B8: tPA K1-GST (kringle 1 domain of human tPA with C-terminal GST tag) (other, UniProt P00750 123-210, looked up)
chain: TRATCYEDQGISYRGTWSTAESGAECTNWNSSALAQKPYSGRRPDAIRLGLGNHNYCRNPDRDSKPWCYVFKAGKYSSEFCSTPACSE
notes: domain: K1; not shown: vector residues and thrombin cleavage site; Schistosoma japonicum glutathion-S-transferase (GST) tag
In the case of B8, in [18], the binding result is reported as “no binding”.

B9: tPA-F-GST (finger domain of human tPA with C-terminal GST tag) (other, UniProt P00750 36-85, looked up)
chain: SYQVICRDEKTQMIYQQHQSWLRPVLRSNRVEYCWCNSGRAQCHSVPVKS
notes: range 1-50; Expressed in 293T or BHK cells; Residues 1-50 count on mature tPA, not on the SwissProt precursor; also called tPA-F domain; F-tPA; not shown: (G)RP vector residues and thrombin cleavage site between domain and GST; Schistosoma japonicum glutathion-S-transferase (GST) tag
As for B9, the binding result in assay [19] is “binds”.
